Measurements from PMC6049929, “Exchange of functional domains between a bacterial conjugative relaxase and the integrase of the human adeno-associated virus”.

Columns and labels:
[1] = target: TrwC/Rep chimera (untagged) (plasmid R388 / human adeno-associated virus (AAV)) (UniProt P03132); experiment: fluorescence polarization; details: EMSA: 10 mM Hepes-KOH pH 7.5, 10 mM KCl, 3.3 mM MgCl2, 1 mM EDTA, 2.5 mM DTT, 400 ng poly(dI-dC), 15 mM (Rep68) or 75 mM (chimera) NaCl, room temperature 20 min
[2] = target: His-TrwC/Rep chimera (plasmid R388 / human adeno-associated virus (AAV)) (UniProt P03132); experiment: EMSA; details: EMSA: 10 mM Hepes-KOH pH 7.5, 10 mM KCl, 3.3 mM MgCl2, 1 mM EDTA, 2.5 mM DTT, 400 ng poly(dI-dC), 15 mM (Rep68) or 75 mM (chimera) NaCl, room temperature 20 min
[3] = target: His-TrwC/Rep chimera (plasmid R388 / human adeno-associated virus (AAV)) (UniProt P03132); experiment: competition; details: EMSA: 10 mM Hepes-KOH pH 7.5, 10 mM KCl, 3.3 mM MgCl2, 1 mM EDTA, 2.5 mM DTT, 400 ng poly(dI-dC), 15 mM (Rep68) or 75 mM (chimera) NaCl, room temperature 20 min
[4] = target: TrwC/Rep chimeric protein (N-terminal relaxase domain of R388 TrwC fused to the C-terminal domain of AAV2 Rep68) (bacterial plasmid R388 (E. coli) | adeno-associated virus 2 (AAV2)) (UniProt Q47673); experiment: AUC; sedimentation velocity, 20°C, 492 nm; 3.32 μM TrwC/Rep chimera with 0.83 μM 5' 6-carboxyfluorescein oriTw(34-mer) ssDNA (protein/DNA 4:1); oligomer size from the theoretical S of a globular complex
His-Rep68 = His-Rep68 (human adeno-associated virus (AAV), UniProt P03132 1-536); experiment: EMSA; 100 ng protein, 15 mM NaCl; EMSA: 10 mM Hepes-KOH pH 7.5, 10 mM KCl, 3.3 mM MgCl2, 1 mM EDTA, 2.5 mM DTT, 400 ng poly(dI-dC), 15 mM (Rep68) or 75 mM (chimera) NaCl, room temperature 20 min; FP: 25 mM HEPES pH 7.0, 200 mM NaCl, 25 C; AUC: 25 mM Tris-HCl pH 7.9, 200 mM NaCl, 1 mM TCEP, 20 C; details: protein: recombinant, tags: N-terminal His (pET15b, PreScission site)

“AGCGCACCGAAAGGTGCGTATTGTCTATAGCCCA [oriTw 34-mer (oriTw(25+8) plus 5' dA)]” showed a Kd [1] of 16 nM.

Molecule “GCGCACCGAAAGGTGCGTATTGTCTATAGCCCA [oriTw(25+8)]” has a binding signal [2] of 49 % shifted and a binding signal [3] of 24 % shifted.

“TrwC/Rep chimeric protein (N-terminal relaxase domain of R388 TrwC fused to the C-terminal domain of AAV2 Rep68) (from UniProt Q47673 2-293; P03132 209-536) (enzyme)” was tested, and the stoichiometry N [4] was > 6 subunits.

B1: AAV ori RBSmut (dsDNA)
DNA 1: CTAGATGATGGAGTTGGCCACTCCCTCTCTCCTCCCTCCCTCCCTCACTG
DNA 2: TCGACAGTGAGGGAGGGAGGGAG
B1: no binding (His-Rep68; label: 32P 5' end, top strand).

GCGCACCGAAAGGTGCGTATTGTCTATAGCCCA (ssDNA) [oriTw(25+8)]: no binding (His-Rep68; label: 32P, inverted repeat IR2).
